This data set has as its system T1, Tn5401 TnpA transposase (Bacillus thuringiensis var. morrisoni EG2158).
T1 sequence: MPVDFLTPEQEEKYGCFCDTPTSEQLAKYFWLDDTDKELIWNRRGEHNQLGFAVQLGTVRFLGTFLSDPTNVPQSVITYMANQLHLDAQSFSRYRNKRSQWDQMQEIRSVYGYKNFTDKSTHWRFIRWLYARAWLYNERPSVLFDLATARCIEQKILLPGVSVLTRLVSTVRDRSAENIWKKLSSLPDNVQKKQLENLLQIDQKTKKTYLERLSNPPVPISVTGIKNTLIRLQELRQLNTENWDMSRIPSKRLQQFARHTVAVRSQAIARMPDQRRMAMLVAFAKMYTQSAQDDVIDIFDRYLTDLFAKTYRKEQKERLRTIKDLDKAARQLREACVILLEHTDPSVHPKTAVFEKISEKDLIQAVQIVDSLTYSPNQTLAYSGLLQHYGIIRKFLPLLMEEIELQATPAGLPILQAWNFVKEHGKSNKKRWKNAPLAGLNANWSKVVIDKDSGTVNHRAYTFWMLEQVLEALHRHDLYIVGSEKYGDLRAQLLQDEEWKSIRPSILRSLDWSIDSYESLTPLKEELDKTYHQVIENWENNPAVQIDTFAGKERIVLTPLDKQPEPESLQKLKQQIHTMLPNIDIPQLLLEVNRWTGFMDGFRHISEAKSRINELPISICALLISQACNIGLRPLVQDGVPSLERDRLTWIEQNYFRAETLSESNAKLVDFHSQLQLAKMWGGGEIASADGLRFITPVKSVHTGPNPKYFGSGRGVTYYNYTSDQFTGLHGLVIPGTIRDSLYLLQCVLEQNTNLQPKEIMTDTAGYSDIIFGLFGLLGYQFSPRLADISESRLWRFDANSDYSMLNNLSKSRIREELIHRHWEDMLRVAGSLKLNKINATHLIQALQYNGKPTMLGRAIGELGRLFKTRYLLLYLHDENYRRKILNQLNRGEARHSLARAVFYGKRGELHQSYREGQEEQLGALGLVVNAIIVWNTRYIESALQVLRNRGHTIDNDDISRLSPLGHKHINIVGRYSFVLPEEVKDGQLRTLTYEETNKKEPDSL
The data set is described as follows: cell_activity. The note with it: pEG922 in plasmid-free B.t. EG7566; 10^-1 to 10^-2 in a plasmid-containing strain; functional transposition, binding not measured directly.

In turn, “Tn5401 transposon with 53 bp terminal inverted repeats” registered an activity (transposition frequency) of 0.0001.

Source of the values: patent publication US5441884.
